Measured values published in PMC9481697.

Columns and labels:
[1] = biological target: FlaA (TDE1712), flagellar filament sheath protein of Treponema denticola (Treponema denticola ATCC 35405); assay: isolation of native flagellar filaments, 2D gel electrophoresis with densitometry and immunoblot
[2] = biological target: FlaA (TDE1712), flagellar filament sheath protein of Treponema denticola (Treponema denticola ATCC 35405); assay: isolation of native flagellar filaments, 2D gel electrophoresis with densitometry; periplasmic flagella isolated from the ΔflaB2 mutant; 2D gels, Coomassie staining, densitometry; ratios relative to FlaA
[3] = biological target: FlaA (TDE1712), flagellar filament sheath protein of Treponema denticola (Treponema denticola ATCC 35405); assay: isolation of native flagellar filaments, 2D gel electrophoresis with densitometry; periplasmic flagella isolated from the ΔflaB3 mutant; 2D gels, Coomassie staining, densitometry; ratios relative to FlaA
[4] = biological target: FlaA (TDE1712), flagellar filament sheath protein of Treponema denticola (Treponema denticola ATCC 35405); assay: isolation of native flagellar filaments, 2D gel electrophoresis with densitometry; periplasmic flagella isolated from the ΔflaB1 mutant; 2D gels, Coomassie staining, densitometry; ratios relative to FlaA

Row | Substance | stoichiometry relative to FlaA in isolated filaments (ratio relative to FlaA) [1] | stoichiometry relative to FlaA in isolated filaments (ratio relative to FlaA) [2] | stoichiometry relative to FlaA in isolated filaments (ratio relative to FlaA) [3] | stoichiometry relative to FlaA in isolated filaments (ratio relative to FlaA) [4]
1 | FlaB1 (TDE1477), flagellar filament core flagellin of Treponema denticola (from UniProt Q73MN1 1-286) (natural protein) | 0.71 | 1.04 | 1.12 | –
2 | FlaB2 (TDE1004), flagellar filament core flagellin of Treponema denticola (from UniProt Q73NZ6 1-286) (natural protein) | 0.61 | – | 0.36 | 0.5
3 | FlaB3 (TDE1475), flagellar filament core flagellin of Treponema denticola (from UniProt Q73MN3 1-285) (natural protein) | 0.18 | 0.38 | – | 0.94
